According to patent US20140348819A1, “Methods of Treating Cancer” (Dana-Farber Cancer Institute, Inc., priority 2011, published 2014):

System: six V600E BRAF melanoma cell lines
Test: Screening of recombinant RTK ligands for ability to confer resistance to BRAFi (PLX4720) or MEKi (PD184352) (Table 4)
Assay type: cell-based, human
Design: ability of recombinant RTK ligand to confer resistance / ability of recombinant RTK ligand to confer resistance (screening value): scale not given here
How it was run: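 Six V600E BRAF melanoma lines treated with PLX4720 or PD184352 after addition of 22 recombinant RTK ligands, scored for drug resistance. Activation of selected RTKs confirmed by western blotting and high-throughput tyrosine kinase phosphorylation profiling.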

B1: Ephrin-A4 (protein, UniProt P52798 26-170, looked up)
Ephrin-A4: LRHVVYWNSSNPRLLRGDAVVELGLNDYLDIVCPHYEGPGPPEGPETFALYMVDWPGYESCQAEGPRAYKRWVCSLPFGHVQFSEKIQRFTPFSLGFEFLPGETYYYISVPTPESSGQCLRLQVSVCCKERKSESAHPVGSPGES
ability of recombinant RTK ligand to confer resistance (A2058, PD184352 - 1 uM, ligand 1.6 ng/ml): 1.00 | ability of recombinant RTK ligand to confer resistance (A2058, PD184352 - 1 uM, ligand 6.25 ng/ml): 1.02 | ability of recombinant RTK ligand to confer resistance (A2058, PD184352 - 1 uM, ligand 25 ng/ml): 0.99 | ability of recombinant RTK ligand to confer resistance (A2058, PD184352 - 1 uM, ligand 100 ng/ml): 1.04 | ability of recombinant RTK ligand to confer resistance (A2058, PD184352 - 1 uM, ligand 400 ng/ml): 1.07 | ability of recombinant RTK ligand to confer resistance (A2058, PLX4720 - 2 uM, ligand 1.6 ng/ml): 0.97 | ability of recombinant RTK ligand to confer resistance (A2058, PLX4720 - 2 uM, ligand 6.25 ng/ml): 0.99 | ability of recombinant RTK ligand to confer resistance (A2058, PLX4720 - 2 uM, ligand 25 ng/ml): 0.96 | ability of recombinant RTK ligand to confer resistance (A2058, PLX4720 - 2 uM, ligand 100 ng/ml): 0.99 | ability of recombinant RTK ligand to confer resistance (A2058, PLX4720 - 2 uM, ligand 400 ng/ml): 0.98 | ability of recombinant RTK ligand to confer resistance (C32, PD184352 - 1 uM, ligand 1.6 ng/ml): 1.02 | ability of recombinant RTK ligand to confer resistance (C32, PD184352 - 1 uM, ligand 6.25 ng/ml): 1.02 | ability of recombinant RTK ligand to confer resistance (C32, PD184352 - 1 uM, ligand 25 ng/ml): 0.98 | ability of recombinant RTK ligand to confer resistance (C32, PD184352 - 1 uM, ligand 100 ng/ml): 1.04 | ability of recombinant RTK ligand to confer resistance (C32, PD184352 - 1 uM, ligand 400 ng/ml): 0.90 | ability of recombinant RTK ligand to confer resistance (C32, PLX4720 - 2 uM, ligand 1.6 ng/ml): 1.04 | ability of recombinant RTK ligand to confer resistance (C32, PLX4720 - 2 uM, ligand 6.25 ng/ml): 1.01 | ability of recombinant RTK ligand to confer resistance (C32, PLX4720 - 2 uM, ligand 25 ng/ml): 1.04 | ability of recombinant RTK ligand to confer resistance (C32, PLX4720 - 2 uM, ligand 100 ng/ml): 1.10 | ability of recombinant RTK ligand to confer resistance (C32, PLX4720 - 2 uM, ligand 400 ng/ml): 1.03 | ability of recombinant RTK ligand to confer resistance (Colo 829, PD184352 - 1 uM, ligand 1.6 ng/ml): 1.08 | ability of recombinant RTK ligand to confer resistance (Colo 829, PD184352 - 1 uM, ligand 6.25 ng/ml): 1.13 | ability of recombinant RTK ligand to confer resistance (Colo 829, PD184352 - 1 uM, ligand 25 ng/ml): 1.01 | ability of recombinant RTK ligand to confer resistance (Colo 829, PD184352 - 1 uM, ligand 100 ng/ml): 0.98 | ability of recombinant RTK ligand to confer resistance (Colo 829, PD184352 - 1 uM, ligand 400 ng/ml): 0.96 | ability of recombinant RTK ligand to confer resistance (Colo 829, PLX4720 - 2 uM, ligand 1.6 ng/ml): 1.06 | ability of recombinant RTK ligand to confer resistance (Colo 829, PLX4720 - 2 uM, ligand 6.25 ng/ml): 1.19 | ability of recombinant RTK ligand to confer resistance (Colo 829, PLX4720 - 2 uM, ligand 25 ng/ml): 1.00 | ability of recombinant RTK ligand to confer resistance (Colo 829, PLX4720 - 2 uM, ligand 100 ng/ml): 0.99 | ability of recombinant RTK ligand to confer resistance (Colo 829, PLX4720 - 2 uM, ligand 400 ng/ml): 0.90 | ability of recombinant RTK ligand to confer resistance (G-361, PD184352 - 1 uM, ligand 1.6 ng/ml): 1.11 | ability of recombinant RTK ligand to confer resistance (G-361, PD184352 - 1 uM, ligand 6.25 ng/ml): 1.09 | ability of recombinant RTK ligand to confer resistance (G-361, PD184352 - 1 uM, ligand 25 ng/ml): 1.04 | ability of recombinant RTK ligand to confer resistance (G-361, PD184352 - 1 uM, ligand 100 ng/ml): 0.98 | ability of recombinant RTK ligand to confer resistance (G-361, PD184352 - 1 uM, ligand 400 ng/ml): 0.86 | ability of recombinant RTK ligand to confer resistance (G-361, PLX4720 - 2 uM, ligand 1.6 ng/ml): 1.08 | ability of recombinant RTK ligand to confer resistance (G-361, PLX4720 - 2 uM, ligand 6.25 ng/ml): 1.05 | ability of recombinant RTK ligand to confer resistance (G-361, PLX4720 - 2 uM, ligand 25 ng/ml): 0.95 | ability of recombinant RTK ligand to confer resistance (G-361, PLX4720 - 2 uM, ligand 100 ng/ml): 1.02 | ability of recombinant RTK ligand to confer resistance (G-361, PLX4720 - 2 uM, ligand 400 ng/ml): 0.88 | ability of recombinant RTK ligand to confer resistance (SK-MEL-5, PD184352 - 1 uM, ligand 1.6 ng/ml): 0.96 | ability of recombinant RTK ligand to confer resistance (SK-MEL-5, PD184352 - 1 uM, ligand 6.25 ng/ml): 0.93 | ability of recombinant RTK ligand to confer resistance (SK-MEL-5, PD184352 - 1 uM, ligand 25 ng/ml): 0.93 | ability of recombinant RTK ligand to confer resistance (SK-MEL-5, PD184352 - 1 uM, ligand 100 ng/ml): 0.98 | ability of recombinant RTK ligand to confer resistance (SK-MEL-5, PD184352 - 1 uM, ligand 400 ng/ml): 0.99 | ability of recombinant RTK ligand to confer resistance (SK-MEL-5, PLX4720 - 2 uM, ligand 1.6 ng/ml): 0.91 | ability of recombinant RTK ligand to confer resistance (SK-MEL-5, PLX4720 - 2 uM, ligand 6.25 ng/ml): 1.07 | ability of recombinant RTK ligand to confer resistance (SK-MEL-5, PLX4720 - 2 uM, ligand 25 ng/ml): 0.99 | ability of recombinant RTK ligand to confer resistance (SK-MEL-5, PLX4720 - 2 uM, ligand 100 ng/ml): 0.99 | ability of recombinant RTK ligand to confer resistance (SK-MEL-5, PLX4720 - 2 uM, ligand 400 ng/ml): 0.93 | ability of recombinant RTK ligand to confer resistance (SK-MEL-28, PD184352 - 1 uM, ligand 1.6 ng/ml): 0.98 | ability of recombinant RTK ligand to confer resistance (SK-MEL-28, PD184352 - 1 uM, ligand 6.25 ng/ml): 0.88 | ability of recombinant RTK ligand to confer resistance (SK-MEL-28, PD184352 - 1 uM, ligand 25 ng/ml): 0.99 | ability of recombinant RTK ligand to confer resistance (SK-MEL-28, PD184352 - 1 uM, ligand 100 ng/ml): 1.07 | ability of recombinant RTK ligand to confer resistance (SK-MEL-28, PD184352 - 1 uM, ligand 400 ng/ml): 0.90 | ability of recombinant RTK ligand to confer resistance (SK-MEL-28, PLX4720 - 2 uM, ligand 1.6 ng/ml): 1.10 | ability of recombinant RTK ligand to confer resistance (SK-MEL-28, PLX4720 - 2 uM, ligand 6.25 ng/ml): 0.84 | ability of recombinant RTK ligand to confer resistance (SK-MEL-28, PLX4720 - 2 uM, ligand 25 ng/ml): 1.05 | ability of recombinant RTK ligand to confer resistance (SK-MEL-28, PLX4720 - 2 uM, ligand 100 ng/ml): 1.10 | ability of recombinant RTK ligand to confer resistance (SK-MEL-28, PLX4720 - 2 uM, ligand 400 ng/ml): 1.00
